Data on 22 sequences can be found in the DeepSol protein solubility set.

A short description of the data set: soluble on expression in E. coli; label from the status in PepcDB or PDB records.
For the sequence “MGSDKIHHHHHHMLKRKIETFLAKWKKSEDRKPLVIKGIRQCGKTYIVQKFAKENYESVVYMNFILEPDKKSAFTGNIDVDTIILNLSALIQGSRFINGKTCIILDEIQECKEARTALKSFHIDGRFDVIATGSLLGVKGYDKSKKKKEEEEGQDSVPVGYETVIDMYPLDFEEFLWANGISDMVIDSVKSCFENESTVPDGIHKAMMELLYRYVIVGGLPEVVNCFLETKNIELIYKVQRNLIAEYEEDMVKYADDPDKPRIRECFESIPKQLAKENKKFQYSVVKKGGRASQYIGSIQWLEDAGIVRRCYNTQITELPLEGNSIKGSFKVYTTDIGILMAMLDYGTQADILKGNLLGYKGAIFENLMADFLCKSGQKLYYFHKDSGLELDFLVRFKGECVILEVKAKTGKAKSMTTVLKNKDVYYVNNAIKLGQYNVGCEGDILTIPLYMGFLVEDKLADVIIPDVDVSLLTTI”, the “soluble on expression in E. coli” value is reported as “not soluble”.
As to “MAHHHHHHMKDEQISCYYLTEKGKNKCFKNIKLITFDLDHTIWNIDALLNYADNECYKYMEQNYKRLYDYLSKEYALSMTNLVKELLERNIDMNKDGVQILTRIRTDALKYLAKQTNYDEIKFASEIQKLWKEKKKDVHLFISPGTLEYLRELKNRGYILGAITNGDSDVNEIKFLNEIFSFVVRSMDYNFAKPNVEIFNIAENLLKEKNINFHVDEWLHVGDDVYTDIMGAKNKNINCAWITMFREGREISHKEWYSYLKLKYEQNDNKQTLSQYDPYADGLFAKFRKKDVVLPFDYIDIEIRHCRDLDSILA”, the “soluble on expression in E. coli” value is “not soluble”.
Take “GISYSVEADPDTTAKAMLRERQMSFKHSKAIAREIKGKTAGEAVDYLEAVIEGDQPVPFKQHNSGVGHKSKVDGWDAGRYPEKASKAFLDLLENAVGNADHQGFDGEAMTIKHVAAHKVGEQQGRKPRAMGRASAWNSPQVDVELILEEPEVED”: the “soluble on expression in E. coli” value is on record as “soluble”.
For “SQGRKPSSELISYQRLHPNEFEIKNLGVLPQSHVIRMERVRFADDIPVAYEITSIPEKIIRGFKESEITEHFFKTLTDNGYEIGKSQQTISASLANSSLAKHLKVKTGDALLSLTQISFLQDGQAFEYVRSYYVGDRFE”, the “soluble on expression in E. coli” value is “not soluble”.
For “MATTIPGSLVNKTKKFFMGMPAPTGYVPGVGRGATGFTTRSDIGPARDPTELPEAGPVGPSPQGASSSSAPPAKRARDDDGDGEDLNEANYDEFSGYSGSLFSKDPYDQEDEDADRIYNEVDDRLDERHKERREKKYKELVELFHKDRPKIQQGFQDLKRQLAEVTEDEWQAIPEVGDMRNKAKRNARAEKFTPVPDSIIAMNMNYGQMSHSIDSGNGLTTPFASGFMSTLGGGGGAAAAGAKSGIMTPGWKSDIPSSGTSTDLDLVKIGQARNKIMDMQLTQVSDSVTGQTVVDPKGYLTDMQSIIPQMGGDLQDIKKARMLLKSVRETNPRHPPAWVASAVLEEQAGKLQTARNFIMEGCEKIKNSEELWLHAIRLHPPELGRSIVANAVRSCPHSVRLWCKASDLEQDLKDKKKVLRKALEQIPSSVKLWKAAVELEDPEDARILLTRAVECCSSSTEMWLALARLETYENARKVLNKAREHIPTDRHIWLSAARLEETRGQKDMVDKIVAKAMSSLKVNQVEINRDQWLKDAVDAEMAKCPITCQAIIRNVIGLGVEDEDKRTTWLADAENFEKEEAFTCVRTVYAIALKEFSRKRSIWDAAIHFEREHGSLDEHEAILLKACETVPEVEDYWLMLAKLRFVNKRVGEARDTLMSAFEKHGHQSEKIWLAATKIEIETDQFDTARGLFGKARAKAPSARVWMKNAHFEWCLGNVEEAKRLCEECIQKYDDFHKIYLVLGQVLEQMNDVHGARLAYTQGIRKCPGVIPLWILLVRLEEKAGQIVKARVDLEKARLRNPKNDDLWLESVRFEQRVGCPEMAKERMSRALQECEGSGKLWAEAIWMEGPHGRRAKSIDALKKCEHNPHVLIAAARLFWSERKIKKAREWFVRAVNLDPDNGDAFANFLAFEQIHGKEEDRKSVFKKCVTSEPRYGDLWQSVSKDPINWRRTTEEILQLATQKIKVPT”, the “soluble on expression in E. coli” value was “not soluble”.
For “GMTMPIFNISDDVDLVPAMPAEGRDGGSYRRQIWQDDVENGTIVAVWMAEPGIYNYAGRDLEETFVVVEGEALYSQADADPVKIGPGSIVSIAKGVPSRLEILSSFRKLATVIPKP”, the “soluble on expression in E. coli” value is on record as “soluble”.
On to “PPLVANQVVTCPDKKSTAAVILTPTENHFTLKCPKTALTEPPTLAYSPNRQICPAGTTSSCTSKAVTLSSLIPEAEDSWWTGDSASLDTAGIKLTVPIEKFPVTTQTFVVGCIKGDDAQSCMVTVTVQARASSVVNNVARCSYGADSTLGPVKLSAEGPTTMTLVCGKDGVKVPQDNNQYCSGTTLTGCNEKSFKDILPKLTENPWQGNASSDKGATLTIKKEAFPAESKSVIIGCTGGSPEKHHCTVKLEFAG”, for which the “soluble on expression in E. coli” value was “soluble”.
With “MKPKPSQFKNLERMLGLKTEQLDAVKVTIELKDKILIIENPTVIKMIAQGQEIYSVIGEAKEAQKEEPKVEIKDEDVKFVMEQTGKGEQEVKEALQKANGDIAKAILLLTGQET”, the “soluble on expression in E. coli” value is recorded as “soluble”.
As to “MGSDKIHHHHHHMKNNNPPALGQKENAKHGEVFFPVQKYITRLAADYPVITTHWHDEAELTLITKGSCTYQIDLLEYEAKEGDIIFIPPLLLHSISIRDCDEFYSETYVFHINFLGGNNTDICSSRYLTPLINHEFAMPYLIAPKHPAYSSLCKCFMRITNLYSRQEFAYELALKAFLLQAIFLLLQYSEKNADFGVNTSSDKLKNVLDYIDVHYAESIQVAELAGLCYFSEYHFMRFFKKHMNMTCVQYINNVRLEKSVEQFERGNTSILDVSLSVGFHNLSYFHRAFKKRYHMTPLSFIKSLE”, the “soluble on expression in E. coli” value is on record as “not soluble”.
Take “MGSDKIHHHHHHMDLRQIKTFVVVAEELHFGRAAARLQIAQPAVTAQIQALERQLGVPLLIRSTRRVQLTEAGMIFNSRCIDILRDIDRTCLATQAVAGKDLHQITIGTIYPATFGVLPNFVSRINQRFPEARIHIHNGNTVGIVREIERGNINLGFIRPVENIGSLRWQSIHREKYLLAIARENPLSSKSTVTPDDLRKQKIIAFSRAYNSQTDDNFPEEFKKYDLNQQVVYSCNDTQAMLAMITAGIGVGFVPEWVKSIPGQNFELREVEGLERHIGLGLAWSVDDPTVNRDSIIELCRTLIGSEVDWPR”: the “soluble on expression in E. coli” value is listed as “not soluble”.
The value for “RPSSVVIGTASQGGVYYIYGGGLAQLLDRELGVSSNVEVTGGPVHNMQLVNEQEQDIGMITMGPGYEGVLGEGEWTGGETYDNVRVIFPMYTTPFHWWSLESSGVTSIEDMDGMRVGVGPSGGTSGTYLPIIHEVLGLDITPVLAGANDMVSQQLDGQLDVIGFAAGLPIPAVAEVEAQRDIHLFGIDGENRDKVLEALPYFEPYTIPADTYDQLDEDLETIAMFNFGITYSEMNADFVYELVKAYHENNDLLMTTHSSAEEAVPEAILRNEVVPLHVGAIRYYEEIGIDLPESVYPAEWENE” was “not soluble”; that for “MPVAKDNQFWDALMENKVAKKLIKKHKCKAKCENIDDLANRYEVSKQEVEKVFKIFQLMDDDGSGTISSSEVAKMLNELGIDVSPKVVQAVMRSSDVSGDGQIDFEEFLAAVTSKIKLSTVKADVQLMLSKIDNNPEKVVSWGIEHLMIIFCEEPLKSCYYRLALTAGCTIICGYLWF” was “not soluble”.
As to “MVTEFAKEMIKNADSCGAQDIYVIPRQDNYELYMRVGQERRLIDVYRPDFMASLIGHFKFVAGMMVGEKRRSQLGSCDYDCGDGHLVSLRLSTVGDYRGLESLVIRILH”, the “soluble on expression in E. coli” value is recorded as “not soluble”.
For “MSGVASGKTAIKSTAKVLSFVVQKHWATRLHYDFRLELEGTMKSWAVPKGPSFDPNDKRMAVHVEDHPISYNSFEGEIPSGQYGAGKVIIWDKGTWIPLEDPHKGYRDGKLKFELRGLKLKGHWALVRMRKEENKKQEPWLLIKEKDEYVRSSREYSVVDEMPDSVAELEHHHHHH”, the “soluble on expression in E. coli” value is listed as “not soluble”.
The value for “MSLKVLICDDDKIVRDDIANIAKESGYVDYVKKVKDGIEAIEFIKNEKIDLLIIDIDMPYKNGIDSAEEILSIDKDIHIVFVTGFADYSLESFKVHPIDFVVKPFKKEKILDSINIAIDHINSHKIANNNFIEDTLFVYKIRKQIHMINFDDIVMFEKNSRAINLHTKDEDIIKFYENFDDLKKRLPPNFFMTHRQYIVNLRFIHKVIPINKSSLEIRFINFQENAILNKSLEKDFLYRFYREGHHHHHH” was “not soluble”; that for “MSEMLNHVASCRLPTEWGVFTMHGFEEANGQEHVALTVGNFSDGNPVLTRIHSECLTGDALFSRKCDCGPQLEAAMRAVQTEGRGIIVYLRQEGRGIGLINKIRAYHLQDQGMDTVEANLALGLPVDARDFRLAQSIYEYLGIRSVKLLTNNPEKIQTLKDAGINVVERIPLHVGENLENKRYLQTKADKLGHLMSE” was “not soluble”; that for “MECLKAEFFSPIALFKTPFSIKGIETYPLPPYSTVIGLLYTASGKKWKGERFNISVQGDYEAIFRDYVRFRKYNKKDKKLETLPLEVPLFYNFRLTVHILGDENLLKEFEKALKFPYVFPYLSGGEYPVKITKVKMVACRKEYFDTFNIPKNAYIPENIFTEEFRVSLEGHGVYYRVPSFLISQKPRQHEWVGVYYVQKGTKVSEMELLVDEEGEPVWV” was “soluble”.
The value for “GIDPFTQRLNFGDDIPSALRIAKKKRWNSIEEKRISQENELHAYLSKLILAEKERELDDRVKQSDDSQNGGDISKMKSKHDKYLMDMDELFSQVDEKRKKREIPDYLCGKISFELMREPCITPSGITYDRKDIEEHLQRVGHFDPVTRSPLTQDQLIPNLAMKEVIDAFIQENGWVEDY” was “soluble”; that for “MIMANILFIDNFDSFTYNLVDQFRSLGHVVTIYRNNLSADAIEQALLQLDNPVVVLSPGPGAPSETGCMPELLQRLKGKVPMIGICLGHQAIVEAYGGVVAGAGEIIHGKVSMMEHQNHAIYRGLPSPLAIARYHSLVATQVPSALTVTAEVNGLVMSVVNEADKVCGFQFHPESIMTTHGATLLANAIDWALSSTPAQTQFA” was “not soluble”.
The value for “MGSDKIHHHHHHMAHLSYSPPRNFDALYRQRVFQSHQAVRMHDAAARELADHSLTWRSGNVDAALYKARARRLTLFSFRYGAEVEIAPRPSEEFIVVHHSIRGAAELSVDGQHMVLPQGRTGWMAPRRNWRMRWEAGCEQLILKIPRDMIEAGGIAPMAPLATLPAGLDTQWLLLVQVLLGASSAPTCAGEPAAWVEHIEQGLASLLRAASSCSLPRESSDRNFVARDPIARLQAMEDYMRERLGAPIGLADLSGAAGVSARVLQQTCQRHRQMSPMELLRDMRLDAVHAWLSEHPSANITETALFYGFGHLGRFAAYYRQRFGESPHQTAQRRCCALS” was “not soluble”.
For the sequence “MKFGWVNVIGDNWEEKKKIVTTALESSIPVVVAEPEDIEKIKELGNIKVASHSLDADIVLVNKNDNIEFLKEAKNLGKETAIYIPIESKEDEEFASEVARFGFVDNIILEGRDWTIIPLENLIADLFHRDVKIVASVNSVDEAKVAYEILEKGTDGVLLNPKNLEDIKELSKLIEEMNKEKVALDVATVTKVEPIGSGDRVCIDTCSLMKIGEGMLIGSYSRALFLVHSETVENPYVATRPFRVNAGPVHAYILCPGNKTKYLSELKAGDKVLIVDKDGNTREAIVGRVKIERRPLVLIEAEYKGDIIRTILQNAETIRLVNEKGEPISVVDLKPGDKVLIKPEEYARHFGMAIKETIIEKLEHHHHHH”, the “soluble on expression in E. coli” value is “soluble”.
For the sequence “MSLDLFSVRMRAQKNGKHVSGAERIVKKEELETAVKELLNRPKEFDFMNVKVEKVKDFEVVKFNLKISTYSFKSPEEAREFAVKKLTQEGIKEEVAKKAVEILSKGANPKGGNMRGAVLMDIETGERLEEDKERGVRTIHFDWKDRKKVTEKLLKEGYTLRTVDALALTFKNLFCGVVAELCWSDDPDYVTGYVSGKEIGYVRITPLKEKGDPLGGRVYFVSRKELSEIIECLTQKVVLIELEGHHHHHH”, the “soluble on expression in E. coli” value is given as “soluble”.
